± gives the standard deviation of the averaged measurements.
Assay: total protein half-life in vivo (active degradation + dilution); higher = more stable protein
[1] = E. coli NCM3722 delta-clpP delta-lon delta-hslV, growth: N-lim chemostat, doubling time 6 h
[2] = E. coli NCM3722 delta-clpP, growth: N-lim chemostat, doubling time 6 h
[3] = E. coli NCM3722 delta-hslV, growth: N-lim chemostat, doubling time 6 h
[4] = E. coli NCM3722 delta-lon, growth: N-lim chemostat, doubling time 6 h
[5] = E. coli NCM3722 delta-smpB, growth: N-lim chemostat, doubling time 6 h
[6] = wild type E. coli NCM3722, growth: C-lim chemostat, doubling time 3 h
[7] = wild type E. coli NCM3722, growth: C-lim chemostat, doubling time 6 h
[8] = wild type E. coli NCM3722, growth: C-lim chemostat, doubling time 12 h
[9] = wild type E. coli NCM3722, growth: N-lim chemostat, doubling time 6 h
[10] = wild type E. coli NCM3722, growth: N-lim chemostat, doubling time 12 h
[11] = wild type E. coli NCM3722, growth: P-lim chemostat, doubling time 6 h
[12] = wild type E. coli NCM3722, growth: P-lim chemostat, doubling time 12 h

| Sequence | total protein half-life in vivo [1] [h] | total protein half-life in vivo [2] [h] | total protein half-life in vivo [3] [h] | total protein half-life in vivo [4] [h] | total protein half-life in vivo [5] [h] | total protein half-life in vivo [6] [h] | total protein half-life in vivo [7] [h] | total protein half-life in vivo [8] [h] | total protein half-life in vivo [9] [h] | total protein half-life in vivo [10] [h] | total protein half-life in vivo [11] [h] | total protein half-life in vivo [12] [h] |
| --- | --- | --- | --- | --- | --- | --- | --- | --- | --- | --- | --- | --- |
| MKKYQQLAEQLREQIASGIWQPGDRLPSLRDQVALSGMSFMTVSHAYQLLESQGYIIARPQSGYYVAPQAIKMPKAPVIPVTRDEAVDINTYIFDMLQASRDPSVVPFASAFPDPRLFPLQQLNRSLAQVSKTATAMSVIENLPPGNAELRQAIARRYALQGITISPDEIVITAGALEALNLSLQAVTEPGDWVIVENPCFYGALQALERLRLKALSVATDVKEGIDLQALELALQEYPVKACWLMTNSQNPLGFTLTPQKKAQLVALLNQYNVTLIEDDVYSELYFGREKPLPAKAWDRHDGVLHCSSFSKCLVPGFRIGWVAAGKHARKIQRLQLMSTLSTSSPMQLALVDYLSTRRYDAHLRRLRRQLAERKQRAWQALLRYLPAEVKIHHNDSGYFLWLELPEPLDAGELSLAALTHHISIAPGKMFSTGENWSRFFRFNTAWQWGEREEQAVKQLGKLIQERL | 5.76 ± 0.15 | 6.15 ± 0.15 | 6.01 ± 0.29 | 6.09 ± 0.51 | 5.54 ± 0.38 | 3.02 ± 0.075 | 5.42 ± 0.59 | 10.5 ± 0.68 | 5.45 ± 0.55 | 13.1 ± 2.8 | 6.52 ± 0.27 | 14.3 ± 2.1 |
| MKLAVYSTKQYDKKYLQQVNESFGFELEFFDFLLTEKTAKTANGCEAVCIFVNDDGSRPVLEELKKHGVKYIALRCAGFNNVDLDAAKELGLKVVRVPAYDPEAVAEHAIGMMMTLNRRIHRAYQRTRDANFSLEGLTGFTMYGKTAGVIGTGKIGVAMLRILKGFGMRLLAFDPYPSAAALELGVEYVDLPTLFSESDVISLHCPLTPENYHLLNEAAFEQMKNGVMIVNTSRGALIDSQAAIEALKNQKIGSLGMDVYENERDLFFEDKSNDVIQDDVFRRLSACHNVLFTGHQAFLTAEALTSISQTTLQNLSNLEKGETCPNELV | 4.95 ± 0.5 | 5.65 ± 1.9 | 4.53 ± 0.051 | 5.26 ± 0.41 | 4.57 ± 0.16 | 3.08 ± 0.3 | 5.97 ± 0.49 | 11.3 ± 0.19 | 4.64 ± 0.38 | 7.53 ± 0.61 | 5.67 ± 0.38 | 12.3 ± 0.16 |
| MKLDEIARLAGVSRTTASYVINGKAKQYRVSDKTVEKVMAVVREHNYHPNAVAAGLRAGRTRSIGLVIPDLENTSYTRIANYLERQARQRGYQLLIACSEDQPDNEMRCIEHLLQRQVDAIIVSTSLPPEHPFYQRWANDPFPIVALDRALDREHFTSVVGADQDDAEMLAEELRKFPAETVLYLGALPELSVSFLREQGFRTAWKDDPREVHFLYANSYEREAAAQLFEKWLETHPMPQALFTTSFALLQGVMDVTLRRDGKLPSDLAIATFGDNELLDFLQCPVLAVAQRHRDVAERVLEIVLASLDEPRKPKPGLTRIKRNLYRRGVLSRS [P0ACP1] | 6.0472 ± 0.0054 | 5.37 ± 0.29 | 5.38 ± 0.37 | 5.87 ± 0.21 | 5.16 ± 0.56 | 3.17 ± 0.32 | 5.63 ± 0.057 | 9.99 ± 0.83 | 5.65 ± 0.2 | 10.7 ± 0.77 | 5.6 ± 0.084 | 10.65 ± 0.013 |
| MKLISNDLRDGDKLPHRHVFNGMGYDGDNISPHLAWDDVPAGTKSFVVTCYDPDAPTGSGWWHWVVVNLPADTRVLPQGFGSGLVAMPDGVLQTRTDFGKTGYDGAAPPKGETHRYIFTVHALDIERIDVDEGASGAMVGFNVHFHSLASASITAMFS |  | 5.59 ± 0.26 | > 8 | 5.79 ± 0.095 | 5.96 ± 0.2 |  | 6.07 ± 0.44 | 13.4 ± 2 | 5.42 ± 0.21 | 11.4 ± 1.1 | 6.04 ± 0.39 | 10.9 ± 2.7 |
| MKLKNTLLASALLSAMAFSVNAATELTPEQAAAVKPFDRVVVTGRFNAIGEAVKAVSRRADKEGAASFYVVDTSDFGNSGNWRVVADLYKADAEKAEETSNRVINGVVELPKDQAVLIEPFDTVTVQGFYRSQPEVNDAITKAAKAKGAYSFYIVRQIDANQGGNQRITAFIYKKDAKKRIVQSPDVIPADSEAGRAALAAGGEAAKKVEIPGVATTASPSSEVGRFFETQSSKGGRYTVTLPDGTKVEELNKATAAMMVPFDSIKFSGNYGNMTEVSYQVAKRAAKKGAKYYHITRQWQERGNNLTVSADLYK | 5.73 ± 0.21 | 5.99 ± 0.45 | 5.8 ± 0.2 | 5.46 ± 0.12 | 5.116 ± 0.0047 | 3.13 ± 0.059 | 5.73 ± 0.11 | 10.5 ± 0.55 | 5.47 ± 0.23 | 9.68 ± 0.69 | 5.61 ± 0.079 | 11.1 ± 0.13 |
| MKLNIRAQTAQNQHNNSPIVLVHGLFGSLDNLGVLARDLVNDHNIIQVDMRNHGLSPRDPVMNYPAMAQDLVDTLDAQQIDKATFIGHSMGGKAVMALTALASDRIDKLVAIDIAPVDYHVRRHDEIFAAINAVSESDAQTRQQAAAIMRQHLNEEGVIQFLLKSFVDGEWRFNVPVLWDQYPHIVGWEKIPAWDHPALFIPGGNSPYVSEQYRDDLLAQFPQARAHVIAGAGHWVHAEKPDAVLRAIRRYLND | 5.19 ± 0.27 | 5.13 ± 0.26 | 5.14 ± 0.17 | 5.82 ± 1.4 | 5.07 ± 0.61 | 3.04 ± 0.12 | 5.74 ± 0.4 | 9.16 ± 2.6 | 5.02 ± 0.39 | 10 ± 1.1 | 6.53 ± 0.95 | 12.4 ± 0.16 |

Reference: the supplement of paper PMC11246515
